Experimental data as given in patent US20250206846A1 (YEDA RESEARCH AND DEVELOPMENT, published 2025).
Where no end group is shown, it is not given here.

Experiments:
[1] = molecular target: T1, Loop-KLK4 synthetic cyclized peptide (CGLHSLEADQEPGSCC) (human, bridge (positions not given here); also: cyclized, chemistry not given here); assay: ELISA, plate coated with Loop-KLK4 peptide; target: Loop3-KLK4 peptide
T1 construct: The peptide was coupled to KLH for immunization and to BSA for the ELISA tests of sera; no carrier is stated there; also called Loop3-KLK4; KLK4-Loop3
T1 peptide: CGLHSLEADQEPGSCC
Experimental: (§1) ELISA binding assay: A ninety-six-well plate (Nunc) was coated with KLK4 and Loop-KLK4 at 10 µg/ml. After blocking with 2% BSA in PBS, the plate was incubated with the antibodies for 1 h at 37° C. Bound antibodies were detected by peroxidase-conjugated antibody goat anti-human (Jackson ImmunoResearch). EC₅₀ was calculated with GraphPad Prism from […] curve fitting analysis.
(§2) Interaction of KLK4 monoclonal antibody was tested by ELISA using KLK4 & KLK4-Loop3. As a control, anti-GST monoclonal antibody was used.

recombinant human KLK4 = molecular target: T2, recombinant human KLK4 (human, UniProt Q9Y5K2 31-253); assay: ELISA, plate coated with KLK4; target: full KLK4
T2 construct: also called Kallikrein-4; Full KLK4
T2 sequence (Q9Y5K2 31-253 H197Q limits assumed): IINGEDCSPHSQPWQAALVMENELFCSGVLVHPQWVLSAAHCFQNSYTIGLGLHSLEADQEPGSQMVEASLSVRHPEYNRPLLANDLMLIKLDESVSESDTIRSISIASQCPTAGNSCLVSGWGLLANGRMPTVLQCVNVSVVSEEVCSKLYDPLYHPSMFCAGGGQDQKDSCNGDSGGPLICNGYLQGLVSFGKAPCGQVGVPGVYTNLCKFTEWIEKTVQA
Experimental: as §1, §2

- EC50 [1]: 0.271 nM
- EC50 (recombinant human KLK4): 0.272 nM
B1: anti-KLK4 monoclonal antibody (antibody, IgG1, V domains shown)
VH: EVQLVESGGGLVQPKGSLKLSCAASGFTFKTYAMTWVRQTPGKGLEWVARIRNKNNNYATFYADSVKDRFTISRDDSQSMLYLLMNNLKTEDTAIYYCVRVNYWYFDVWGAGTTVTVSS
VL: EIVMTQSTAIMSASPGEKVTMTCRASSSVSSTYLHWYQQKSGASPKLWIYSTSNLASGVPARFSGSGSGTSYSLTVSSVEAEDAATYYCQQYSSYPLTFGGGTKLEIK
notes: Monoclonal antibody from a hybridoma of immunized balb-c mice; also called anti-KLK4 antibody
